What was measured:
[1] = target: the molecule itself; test: NanoBRET, Nluc and HaloTag fusions co-transfected in HEK293T cells
Method: (§1) To investigate the interaction between AR FL protein and AR2 protein, NanoBRET assay was performed (Promega NanoBRET™ Protein: Protein Interaction System). Briefly, HEK293T cells were co-transfected with a Nanoluc luciferase (Nluc) fusion plasmid and a HaloTag fusion plasmid with Lipofectamine 2000 reagent. Nluc-MDM2 and p53-HaloTag pair was included as the positive control, and Nluc-MDM2 and HaloTag-SMAD4 pair as negative control. At 24 h after transfection, cells were treated with or without 10 nM DHT. HaloTag NanoBRET 618 ligand or DMSO (no-ligand control) was added. At 24 h, NanoBRET Nano-Glo substrate was added and NanoBRET readings at 460 nm and 618 nm were obtained. Mean corrected NanoBRET ratio in milliBRET unit was calculated using the formula: Mean corrected Nanobret ratio, […]

[2] = target: T1, human androgen receptor (AR), full length (human, UniProt P10275 1-920); test: as above
T1 construct: Full-length AR expressed inside transfected HEK293T cells, not on the cell surface; In the NanoBRET assay it was an N- or C-terminal fusion with Nanoluc luciferase or HaloTag; For co-IP the constructs were with or without an N-terminal FLAG tag; Assays were run with or without 10 nM DHT; also called AR1; AR FL
T1 sequence: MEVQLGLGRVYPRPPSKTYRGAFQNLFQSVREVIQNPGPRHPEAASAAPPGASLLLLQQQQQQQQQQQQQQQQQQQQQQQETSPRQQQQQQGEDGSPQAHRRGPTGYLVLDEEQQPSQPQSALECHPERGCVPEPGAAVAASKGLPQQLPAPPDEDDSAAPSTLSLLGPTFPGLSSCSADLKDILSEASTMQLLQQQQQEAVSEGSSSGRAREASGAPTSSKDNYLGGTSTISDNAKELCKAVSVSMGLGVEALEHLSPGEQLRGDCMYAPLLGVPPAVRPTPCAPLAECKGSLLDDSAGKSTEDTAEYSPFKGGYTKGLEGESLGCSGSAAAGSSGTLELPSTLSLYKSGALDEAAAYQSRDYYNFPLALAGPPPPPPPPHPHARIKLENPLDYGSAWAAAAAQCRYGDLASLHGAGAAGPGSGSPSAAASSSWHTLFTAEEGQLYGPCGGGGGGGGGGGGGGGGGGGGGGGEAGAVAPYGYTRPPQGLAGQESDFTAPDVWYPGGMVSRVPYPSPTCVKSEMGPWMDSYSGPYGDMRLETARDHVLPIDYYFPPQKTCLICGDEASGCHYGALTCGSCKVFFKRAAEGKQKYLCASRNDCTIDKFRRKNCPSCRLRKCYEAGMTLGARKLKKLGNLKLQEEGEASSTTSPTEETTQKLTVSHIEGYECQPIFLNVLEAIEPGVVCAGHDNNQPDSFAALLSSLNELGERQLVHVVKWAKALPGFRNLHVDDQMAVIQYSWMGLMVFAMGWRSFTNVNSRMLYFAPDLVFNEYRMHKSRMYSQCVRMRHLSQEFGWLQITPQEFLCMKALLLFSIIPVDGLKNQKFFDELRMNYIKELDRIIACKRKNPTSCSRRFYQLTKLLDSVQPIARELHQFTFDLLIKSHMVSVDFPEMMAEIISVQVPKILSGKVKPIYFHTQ
Method: as §1

B1: human androgen receptor splice variant 2 (AR2) (receptor)
chain: MILWLHSLETARDHVLPIDYYFPPQKTCLICGDEASGCHYGALTCGSCKVFFKRAAEGKQKYLCASRNDCTIDKFRRKNCPSCRLRKCYEAGMTLGARKLKKLGNLKLQEEGEASSTTSPTEETTQKLTVSHIEGYECQPIFLNVLEAIEPGVVCAGHDNNQPDSFAALLSSLNELGERQLVHVVKWAKALPGFRNLHVDDQMAVIQYSWMGLMVFAMGWRSFTNVNSRMLYFAPDLVFNEYRMHKSRMYSQCVRMRHLSQEFGWLQITPQEFLCMKALLLFSIIPVDGLKNQKFFDELRMNYIKELDRIIACKRKNPTSCSRRFYQLTKLLDSVQPIARELHQFTFDLLIKSHMVSVDFPEMMAEIISVQVPKILSGKVKPIYFHTQ
notes: Whole AR2 expressed inside transfected HEK293T cells; In the NanoBRET assay it was a fusion with Nanoluc luciferase or HaloTag; For co-IP it was with or without an N-terminal FLAG tag (anti-FLAG M2 beads); also called AR45; AR splice variant 2
B1: binds [1]; binds [2].
